Reference: publication PMC4878091 (The Journal of Cell Biology, 2016)

Molecular target: recombinant collagen IV α2 monomer (α2-84/α2-CB3)
Test: SEC

stoichiometry N: 2
B1: recombinant collagen IV α1 monomer (α1-84/α1-CB3) (domain or fragment)
chain: not shown
